# Measured values from the DeepSol protein solubility set.
# Assay: soluble on expression in E. coli; label from the status in PepcDB or PDB records
row,Sequence,soluble on expression in E. coli
1,MGSDKIHHHHHHMSGPGTYSPPSSRLQYLGCCAGVAGARLVPGPLGGRFPFSNCVLVEDAGFKVLVDTGCEPWERGLVDVDVVVFTHFHPDHIRGFHRLRAGRVAAPEGEEPYAGRLERLALRFAGERWREWISMARLVMDLEGVPEPGEYFRPGEDLCFRGVCIKTYPARGHLQTHTLLELPGGLVHLVDIDLTGFGPWYGNPEASPELFLLDIEAAAEMEARGYLSAHKDRVYSRGEGVEALARFAGRLVEQAEGVYKALEAAGRPLWPWELTGRGIIYRRYLEGMEAIMSYFEGVMIEKLLGLLGLWGCTRKTPGGYVARDCHLGVIKDRITRNILSLA,not soluble
2,MGSDKIHHHHHHMSGQCLYILRNRTNWHVNRLRVFTPSQEGGASVCKRTTRRAADTIPRNIDSCCDRVLRNGILRRSRAAPTNRDTNMLHQNNGFHANALLGSLADDSLRALAPHLELVKIKSAQLLCETDEPMRHLYFPTTAMMSVLYLMEDGAMVEVAAVGNEGVVGVSTLADYGCGGASGRIEVRSGGYAYRVSTQVFRREFDRSLDTFQLMLRYWQAAMTQIARGALCNRHHSVSEQLSRWLLLAHDRVEGDELAVTQQTIANMLGVRREGITEAAGKLQEAGLIRQRRGHITVLDREGLEARACECYGVIRGEFNRLILEARRDAHAPQPIPAEGRPLRVAGYHGAVRSAA,not soluble
3,MGSDKIHHHHHHMSHKPSAEDKEKSKLTKEEWRDYTKTVWSIANTSHEDHPAVFPLEIPHRLTKLFSFYGETVLDPFAGTGTTARAAIPLGRRAICVDQNADYTEIIKKDCAKLRNGHGADFEPLVVVNGDSRKMDFVESDSVGLVVTSPPYWNKADYGDSKRNLGTIERYSDFIEGIRPVFEECYRILTPGRKLCVVTANVNQHTDHGLLTFPLATDFAVLLRQIGFVMINEIIWSKDATGGKWGSYGAQRPIFGSYPYPPNFLFKNVHEYILIFAKPPRTKTTGPKVQPYKKLVEGLTGGIMEPDSLPAYAQAFRQQ,not soluble
4,MGSDKIHHHHHHMSIFANLFKKQADADAKVVGNVEDFVSLTRVYFQSVIAVNLGITNIRFLPDVANFKRLFKVATQGGKLGLAEKSASRKMLMQDYGISESFFKEIDTSIKKNCRTQNDVQAYLFMYQGFSSDLMMLMGNLMQWKFRMPAIFKKALRSMTEKTVHDVCTKTVWKADDVHKTAAAVRQYKERLGFSEQWMSEYVYNIVLLAKKEPKHKDEEAKAK,not soluble
5,MGSDKIHHHHHHMSKIILVVAAHTDDEAMGCGGTIARHIAEGDEVHLLFMTDGVGSREVLAEEVIDRSSAAQQAAKILGVSSFTNLSFPDNRMDSVALLDIVKEVEVKISEIKPEIIYTHHIGDLNIDHQVTHKAVMTACRPQPGFSVKTIYAFEVLSSTEWQTSNSALFIPNVFIDITDYLPVKMDASKAYYNEMREVPHSRSLQHIELLARHRGYTVGVHAAEAFMLVREIK,not soluble
6,MGSDKIHHHHHHMSKNVLIVSASPRKGGNSDLLCDQFIQGVLESKNQVEKIFLKDKDINYCTGCGACYEKEANCSQTDDMGEILEKMIGADVIVLATPVYFYTMNAQMKTMIDRTCSRYTEICDKDFYFIVTAADENVADMERTIEGFRGFTSCLNGSKEKGIVYGVGAWNVGDIKGSKAMKQAYEMGKLA,not soluble
7,MGSDKIHHHHHHMSKPTQYGIIGCGMMGQEHLRNIALLPDARVAAIFEPNALMQAEAAKFAPDAQFVDSVEALLAIAELDCIMIASPNFRHVEQLETLASQNPLPVLVEKPLFTTLDDLNRIEEFAAHYPAPVWVAMEYRYMPPITAFLNEADTATGGIKMLTVREHRFPFLSKVDDWNRFNAQSGGTFVEKCCHFFDLMRLALKSEPVRIMASGGQDVNHLDERYDGSVPDILDNGYVIVEFESGARAMLELCMFAEGSKYQEDVSAVGPNGKVEAFVPGPGRFWPSHLGDAPVPKLVLSPRNPKGPEERDIPVDPTILDAGDHNGSTFYQHQKFLELVRGERSTPEVSLNDGKMAVLMGLAAQMSIAENRTVEISELL,not soluble
8,MGSDKIHHHHHHMSKVSLTIPPDFILGAAASAWQTEGWSGKKAGQDSYLDLWYKQDRQVWHNGYGPAKATDFFNRYREDVALMKLAGLTHYRTSINWSRFMLDYEKGIVDEEYAAYIDNLLDEMHRQGIEPMICLEHYELPACLLEKYQGWSSKQVVEWFVLYADTVFARYAGKVKRWFTFNEPIVVQTRVYLDALRYPYEQNTHTWMQWNHHKNLATAKVVQRFRQKGYDREGGSIGVILNPEVTYPRSRAAHDVKAAHLYDLFYNRVFLDPALKGEYPAELIALLAQHQVKWDYTEEELAIIRDNTVDEVGINLYYPHRVKAPSREWNKETPFHPAYYYEHFELPGRRMNTSRGWEINPKIIYDMAKRIEREYDNVPWFVAENGIGIENEARFKDDAGVIQDDYRIAFIAEHLYWTLKAKEEGANCRGYMLWAFTDNVSPMNAFKNRYGLIEIDLEQDRQRRPKKSAAWFRQLHDTRQLELTLDDEEK,not soluble
9,MGSDKIHHHHHHMSLAVVYSRASMGVQAPLVTIEVHLSNGKPAFTLVGLPEKTVTEAQGRVRSALLNAQFKYPAKRITVNLAPADLPKEGGRFDLPIALGILAASEQINAKKLQQFEFVAELALTGELRGVHGVIPAILAGQKSKRQLIVAQQNANEASLVSQHETFFARNLLEVVQFLNDDSSLPSSTTLCMQSAVDFSPQSNKDLTDIIGQQHAKRALMIAAAGQHNLLFLGPPGTGKTMLASRLTGLLPDMTDQEAIETASVTSLVQNELNFQNWKQRPFRAPHHSASSPALVGGGTIPKPGEISLAHNGVLFLDELPEFERRVLDALRQPLESGEIIISRANAKIQFPARFQLVAAMNPSPTGHYTGIHNRTSPQQVLRYLNRLSGPFLDRFDLSIEVPLLPQGALQNTEDRGETTAQVKEKVLRVREIQLARAGKVNAYLTGKEIERDCKLTEQDALFLENTLTRLGLSVRAYHRILKVARTIADLNGDSDIKQNHLAEALSYRAMDRLLRKLSDQ,not soluble
10,MGSDKIHHHHHHMSLLINLSFAPLQPTGWLTYSLNLLPHIKYLGVNVLSPREIPEVKVYQSPTNITTECGIKGHFQRLMWVQFKLPSFYKKLKSQLLFSPIPEVPLFSRCRSIVTIHDLIPLRFPQEFSAAQLFYCRNYLPAVIKQSEHIICNSLSTAHDIQNFLGVPEKKITITSLAIDTENFKFLDLPKKNYFLYYGRHNIYKNLNRIIAAFAALPNKDYELWLAGPNDARYTPTLQAQVEELGITHRVKFLDYVSYSELPVIINQAIALVFPSLWEGFGFPVLEALACGTPVITSNLSSLPEVAGDAAILINPYNTAEITDAMQNIANDVKLQSHLSTQGIARANQFSWERTGKATSEVLSRYL,not soluble
11,MGSDKIHHHHHHMSLRDKIEELKKIEKEIEQGGGPEKVEKQHRAGKLTAWERLELLLDPGTFVEIDKFVEHRNTYFGLDKVKLPRDGVITGVGEINGRKVAVFSQDFTVMGGSLGEMHAKKIVKLLDLALKMGIPVIGINDSGGARIQEGVDALAGYGEIFLRNTLASGVVPQITVIAGPCAGGAVYSPALTDFIVMVDQTARMFITGPNVIKAVTGEEISQEDLGGAMVHNQKSGNAHFLADNDEKAMSLVRTLLSYLPSNNAEEPPVEDPDTSLETPEDILDILPDNPNKGYDVRDVIKRVVDHGEFFEVQPYFAKNIVIGFARIQGKTVGIVANQPSVLAGVLDIDSSDKAARFIRFLDAFNIPILTFVDTPGYLPGVAQEHGGIIRHGAKLLYAYSEATVPKITVILRKAYGGAYIAMGSKHLGADMVLAWPSAEIAVMGPEGAANIIFKREIEASSNPEETRRKLIEEYKQQFANPYIAASRGYVDMVIDPRETRKYIMRALEVCETKVEYRPKKKHGNIPL,soluble
12,MGSDKIHHHHHHMSLSAQKCGRFFVSIQTEFEQERPTHKGGEIGIDMGVTRFATLSNGEFFEPLNAFKTYKGKLAKLQKQLKNKVKFSKNWQKLKEKIGKLHHKIANCRKDFLHKISTQISKNHAMIYVEDLQVANMSKSAKGTVEAHGKNVKQKSGLNRAILDQSWFEFRRQLDYKTQWLGGFLVAVPPRDTSRTCPCCGHIAKENRETQAHFECVECGYRENADVVGGINVLARGLAIVQA,not soluble
13,MGSDKIHHHHHHMSLVVGSARIDENGHISGGKPGDQTGNEVSTQAYYVHSKGWYCLRPKSITVANAIAEAMLQGCRNNNIGYCQGHRSNVIEQLRRVGKLSKISVKTEADCSSLVRACCIQAGFDPGNFNTASEASALKATGQFMEAIAVTSKTELFNGDVLVTKTKGHTVVVVSGNPRHGNTYYPKYEGTSGSIITALAAVGEKDTSKAHRAKIAAANGITNYAYTAAQNTKMVNLLKKGKLIKA,not soluble
14,MGSDKIHHHHHHMSNKKLIINADDFGYTPAVTQGIIEAHKRGVVTSTTALPTSPYFLEAMESARISAPTLAIGVHLTLTLNQAKPILPREMVPSLVDEAGYFWHQSIFEEKVNLEEVYNEWDAQIISFMKSGRRPDHIDSHHNVHGKNKKLLGVALALARKYQLPLRNASRSIETKDYLELYQDVRTPDEMLYQFYDKAISTETILQLLDMVVCSEGEVFEINCHPAFIDTILQNQSGYCMPRIREVEILTSQEVKEAIEERGILLANYESLAM,not soluble
15,MGSDKIHHHHHHMSPKTDIAEVNQESLYRIFTIPEAPDSTLGKIEKHLSENLMGFLGEHIVAREKPLQEIERDFDKSQIPEEPAFVSDHTEFLLDKLVAHSVHTASPRFIGHMTSALPYFLLPLAKLMVGLNQNLVKIETSKAFTPLERNVIGMMHHLVYQQDAPFYNRWMHSAQHSLGAFCSGGTIANMTALWVARNRLLQADGDFAGISADGLAAGLQHYGYSKLTVVVSERGHYSLSKAADVLGIGRRNLVSVATDSDNRIRIDELRKTCEKIAKEGGKVLALVGVAGTTETGHIDPLDEMATVAEEVDAHFHVDAAWGGATLLSEQHRPLLAGIERADSVTIDAHKQMYVPMGAGLVLFKNPALVKSIEYHAEYIIRQGSKDLGSHTMEGSRAGMAMMVFSAMHVIGRRGYELLINNSIDKARYFSKLISEQDDFEVITEPELCILTYRFVPIKVKTVLDKATPEQLARLTPHLNALTRYIQKRQRETGQSFVSRTKLTPAQYHHEPTVVFRVVLANPLTTNEMLQEVLCEQRKIAAKATSLRGALHTEMRELGMLI,not soluble
16,MGSDKIHHHHHHMSPLEMALLVHRGEFHLRELEPELPLEKFLKNADPKKTRKFLEKCGKEELERQKELIRKHNVKLVSFWEDDYPQHLREIRYPPAVLFVRGDAELLKEKCVGVVGTRRPTSYGVNVTKRFVKLLSEYFVIVSGMAFGIDSVAHKEALSSGGKTVAVLGTGVDVVYPRSNERLFHEIVKNGCVVSEYPMGTRARKHHFPARNRIIAGLSDAIIVTEAPIKSGALITVKFALESGRDVFAVPGDIDRKTSEGTNYLIKSGAYPLTDEEDLETHFGIRRIASPSLDDDKKKIYDLLRSSPKTVDELVEELGWSVSEVLRVISEMELMGMIWFDGGAYRLLG,not soluble
17,MGSDKIHHHHHHMSPQEYCQNKAAASGSSFYYSFLFLPKAKREAITALYAFCREVDDIADDVQDVNVAQTKLNWWRSEIINLFEGKPQHPVTMALQSPVRELKLKQQHFLEIINGMQMDLEQNRYRDFEELELYCYRVASVVGLLSASIFGYSNPQTLQYALDLGMAFQLTNITRDVGEDGRRGRIYLPLDEISRFGVSEQDILQGKASDNMRQLLEFQVERAERYYEKALAELPLEDRKQQRTGLIMASIYRTLLKEIKRDDIQVVLNARVSLTPIRKLWLAWLTWIRN,not soluble
18,MGSDKIHHHHHHMSQLEKAQAEYAGFIQEFQSAIISTISEQGIPNGSYAPFVIDDAKNIYIYVSGLAVHTKNIEANPLVNVLFVDDEAKTNQIFARRRLSFDCTATLIERESQKWNQVVDQFQERFGQIIEVLRGLADFRIFQLTPKEGRFVIGFGA,soluble
